Experimental data: patent publication US20140088006A1, “Stem Cell Mobilization and Tissue Repair and Regeneration” (Wellstat Therapeutics Corporation, priority 2011, published 2014)
Where “and” joins values, the source holds several entries; their conditions need not be identical. Identical values can stand only once.

How the values were obtained:
[1] = tested on: human umbilical cord blood CD34+ cells; assay: Transwell migration of CD34+ cells toward SDF-1α; type: cell-based; conditions: 10 μg/mL; control and Compound X treated cells; 100 ng/mL SDF-1α; 4 hours
Protocol: CD34^+ cell migration toward 100 ng/mL SDF-1α in a Corning Transwell device (24 well format, 5 μm pore size, polycarbonate membrane) was studied with and without Compound X and in the presence or absence of either anti-CXCR4 antibody or the CXCR4 antagonist AMD3100.
The CD34^+ population of cells from human umbilical cord blood was obtained from Lonza, defrosted and expanded ex vivo with cytokine cocktail for 6 days according to standard procedures. Briefly, 10 wells of two 12 well dishes were seeded at a density of 8×10^4 cells per well in 2 mL of CellGenix serum free growth medium (SCGM). Cells were allowed to expand in a 37° C. incubator (5% CO2, 86% RH) for 6 days. During the expansion, the 10 wells of one of the two plates received treatments of Compound X to a final concentration of 5 ng/mL (10 μL from freshly prepared 1 μg/mL stock in SCGM) at 24 hours and 72 hours after initiation of the culture.
3 hours prior to the start of the migration assay, both control and Compound X expanded cells were pulsed with either 0, 5 ng/mL or 5 μg/mL Compound X. Migration assay was performed according to the method described (Tavor et al. 2005). Cells were centrifuged for 5 minutes at 1100 RPM and resuspended at a density of 2×10^6 cells/mL in CellGenix SCGM serum free medium containing 1% Fraction V BSA either in the presence or absence of 5 ng/mL or 5 μg/mL Compound X for 3 hours. The feeder tray (bottom) was prepared with 600 μL of serum free SCGM supplemented with 1% BSA in the presence or absence of SDF-1α. All treatments were conducted in triplicate. The wells of the migration chamber (top) received 100 μL of cells from the 2×10^6 cells/mL suspensions, preincubated with 5 ng/mL or 5 μg/mL Compound X or Control. All treatments were conducted in triplicates. The plates were placed in a 37° C. incubator (5% CO2, 86% RH) and cells were allowed to migrate for 4 hours. […]
The cells were thawed at room temperature. […] 150 μL of the resulting cell lysates were transferred to a new 96 well plate and the fluorescence was read on a […] SpectraMax M2 fluorimeter (ex 485, em 538). […]

[2] = tested on: white blood cells in peripheral blood; assay: White blood cell count in peripheral blood after single subcutaneous injection; type: in vivo, C57Bl6 mice; conditions: s.c. 5 mg/kg; 1 hr; pooled blood
Protocol: (§1) C57Bl6 male mice, from 8 weeks to 4 month of age, from Harlan were used. Mice received subcutaneous injections of saline, Compound X (50 μg/kg) or Compound X (250 μg/kg). After 1 and 4 hours, mice were anesthetized and blood was collected through the orbital sinus with heparinized capillary tubes. 20 μl of blood was removed from each tube for WBC counts;
(§2) In this experiment, C57Bl6 mice received subcutaneous injections of PBS, Compound X (250 μg/kg) or AMD3100 (5 mg/kg). After 1 hr blood was collected through the orbital sinus with heparinized capillary tubes. Blood from each group was pooled, counted and mononuclear cells were isolated by density gradient separation. Cells were washed, counted and plated at 100,000 per dish (5 dishes/group) for CFU-GEMM and CFU-GM colonies. CFU-GEMM colonies were scored on day 14, while CFU-GM colonies on day 7 after plating in MC3434 (Stem cell Technology).

[3] = tested on: hematopoietic stem cells (HSC) and their hematopoietic progenitors (HPC); assay: CFU-GM / CFU-GEMM colony assay of peripheral blood mononuclear cells after single subcutaneous injection; type: in vivo, C57Bl6 mice; conditions: s.c. 5 mg/kg
Protocol: as §1
Remaining blood from each group was pooled and mononuclear cells were isolated by density gradient separation. To enumerate HSC and HPC in peripheral blood cells were washed, counted plated in semi-solid Methylcellulose MC3434 (Stem cell technology) at 100,000 per dish (5 dishes/group) and placed in CO2 incubator at 37° C. Colony-forming unit-granulocyte erythroid macrophage megakaryocyte (CFU-GEMM) and Colony-forming unit-granulocyte macrophage (CFU-GM) were detected under inverted microscope 7 and 10 days after.
as §2

[4] = tested on: peripheral blood cells; assay: FACS phenotype of peripheral blood cells after single subcutaneous injection; type: in vivo, C57Bl6 mice; conditions: for Phenotype Lin−/Sca-1+ / Phenotype Lin−/Sca-1−: 5 mg/kg, mononuclear cells
Protocol: C57Bl6 male mice, from 8 weeks to 4 month of age, from Harlan were used. […] 20 μl of blood was removed from each tube for WBC counts;
200 μl of blood was used for FACS analysis of cells phenotypes: briefly 50 μl of blood was transferred to a 15 ml polypropylene tube containing 1 ml ACK lysis buffer and the tubes left at room temperature for 6 minutes. 50 μl of a 1:50 dilution of Fc block (Pharmingen 01241A) along with 2 ul of anti-CD19FITC (Pharmingen 09654A) and 2 μl of anti-Gr-1PE (Pharmingen 01215A) was added and the tubes left at room temperature for 30 minutes protected from light. The cells were washed with 3 ml FACS buffer, resuspended in 300 μl FACS buffer and kept on ice, protected from light until acquired on the FACSCalibur.
For flow cytometry analysis the blood was stained with antibodies and a phenotype determined by FACS as described before. In addition to the whole blood FACS phenotyping, Ficolled blood was also stained to monitor the Lin−/Sca+ phenotype. The cells were washed with 3 ml FACS buffer, resuspended in 300 μl FACS buffer and kept on ice, protected from light until acquired on the FACSCalibur

[5] = tested on: white blood cells in peripheral blood; assay: White blood cell count after 4 daily injections of G-CSF and Compound X; type: in vivo, mice; conditions: 5 μg/mouse each agent s.c. daily for 4 days, pooled blood
Protocol: Compound X and Neupogen (rG-CSF Amgen, lot# P043601) were diluted in PBS. Mice received subcutaneous injections of PBS, Compound X (5 μg/mouse), G-CSF (5 μg/mouse) or Compound X (5 μg/mouse)+G-CSF (5 μg/mouse) for four consecutive days. On the last day of injections, 1 hour post injections, blood was collected through the orbital sinus with heparinized capillary tubes. Blood was pooled from 3 mice/group and white blood cell counts were obtained. Mononuclear cells were isolated by density gradient separation from pooled blood. Cells were washed, counted and plated at 100,000 per dish (5 dishes/group) for CFU-mix and CFU-GM colonies. Blood was also collected and processed on day 8 for colony assay. Results are shown in Tables 10, 11, and 12 and in FIG. 5.

[6] = tested on: HSC and HPC; assay: CFU-GM / CFU-GEMM colony assay after 4 daily injections of G-CSF and Compound X; type: in vivo, mice; conditions: for CFU-GEMM numbers, MEAN / CFU-GM numbers, MEAN / CFU-GEMM numbers / CFU-GM numbers: 5 μg/mouse each agent s.c. daily for 4 days; for CFU-GEMM numbers / CFU-GM numbers: individual dishes; for Fold increase in number of CFU-GM / Fold increase in number of CFU-Mix (CFU-GEMM): multiple injections, 5 μg/mouse each agent
Protocol: Compound X and Neupogen (rG-CSF Amgen, lot# P043601) were diluted in PBS. Mice received subcutaneous injections of PBS, Compound X (5 μg/mouse), G-CSF (5 μg/mouse) or Compound X (5 μg/mouse)+G-CSF (5 μg/mouse) for four consecutive days. […] Mononuclear cells were isolated by density gradient separation from pooled blood. […] Blood was also collected and processed on day 8 for colony assay. Results are shown in Tables 10, 11, and 12 and in FIG. 5.

[7] = 1 hour, individual dishes, 5 mg/kg

## c1cc(CN2CCCNCCNCCCNCC2)ccc1CN1CCCNCCNCCCNCC1 [AMD3100, reference compound]
[1]
  CD34+ cell Transwell migration toward SDF-1α: strong inhibition
[2]
  White blood cell count: Cell Count: 1.14e+07 mL⁻¹
[3]; 1 hour
  CFU-GEMM, MEAN: 6.2 per 100,000 cells
  CFU-GM (day 7), MEAN: 20.6 per 100,000 cells
[3]; [7]
  CFU-GEMM: 5 per 100,000 cells and 4 per 100,000 cells (2×) and 11 per 100,000 cells and 7 per 100,000 cells
  CFU-GM (day 7): 19 per 100,000 cells (3×) and 26 per 100,000 cells and 20 per 100,000 cells
[3]; 1 hr
  number of circulating committed precursors of granulocytes and macrophages—CFU-GM: substantial increase
[3]; 1 hr, vs PBS
  increase of CFU-GEMM number in peripheral blood: 6.2 times
[4]; 1-hour
  Phenotype Lin−/Sca-1+: 0.6%
  Phenotype Lin−/Sca-1−: 2.8%
[4]; 30-min
  Phenotype Lin−/Sca-1+: 0.5%
  Phenotype Lin−/Sca-1−: 2.1%
[4]; s.c. 5 mg/kg, 30 min and 1 hr
  mobilization of lineage negative progenitors: up to 3 times

B1: G-CSF: Neupogen (rG-CSF Amgen), most common mobilizing agent for clinical uses (protein, chains of the INN, looked up)
chain: MTPLGPASSLPQSFLLKCLEQVRKIQGDGAALQEKLCATYKLCHPEELVLLGHSLGIPWAPLSSCPSQALQLAGCLSQLHSGLFLYQGLLQALEGISPELGPTLDTLQLDVADFATTIWQQMEELGMAPALQPTQGAMPAFASAFQRRAGGVLVASHLQSFLEVSYRVLRHLAQP
[5]; Day 4, 1 hour post injection
  White Blood Cell counts: Cell Count: 14.6 ×10^6
[5]; Day 8
  White Blood Cell counts: Cell Count: 5.0 ×10^6
[6]; Day 4
  CFU-GEMM numbers, MEAN: 17.6 per 100000 mononuclear cells
  CFU-GM numbers, MEAN: 60.6 per 100000 mononuclear cells
  CFU-GEMM numbers: 20 per 100000 mononuclear cells and 12 per 100000 mononuclear cells (2×) and 15 per 100000 mononuclear cells and 29 per 100000 mononuclear cells
  CFU-GM numbers: 62 per 100000 mononuclear cells and 58 per 100000 mononuclear cells and 63 per 100000 mononuclear cells and 52 per 100000 mononuclear cells and 68 per 100000 mononuclear cells
  Fold increase in number of CFU-GM: 12 Fold
[6]; Day 8
  CFU-GEMM numbers, MEAN: 4 per 100000 mononuclear cells
  CFU-GM numbers, MEAN: 15.0 per 100000 mononuclear cells
  CFU-GEMM numbers: 5 per 100000 mononuclear cells and 4 per 100000 mononuclear cells (3×) and 3 per 100000 mononuclear cells
  CFU-GM numbers: 12 per 100000 mononuclear cells and 15 per 100000 mononuclear cells and 11 per 100000 mononuclear cells and 21 per 100000 mononuclear cells and 16 per 100000 mononuclear cells
  Fold increase in number of CFU-GM: 6 Fold
  Fold increase in number of CFU-Mix (CFU-GEMM): 5 Fold
[6]; Day 4, 1 hr after the last injection
  Fold increase in number of CFU-Mix (CFU-GEMM): 12.5 Fold
